Experimental findings from patent US20120282271A1 (Genentech, published 2012) are described below.

The assay addresses T1, Ron (Sema IPT1)-IgG fusion protein (human, UniProt Q04912 25-683, limits assumed).
T1 construct: domain: Sema IPT1; Captured on the chip or plate through an anti-human IgG (Fc specific) antibody; also called Ron-Fc; human Ron; not shown: IgG (Fc) portion, captured by rabbit anti-human IgG Fc antibody
T1 sequence (looked up): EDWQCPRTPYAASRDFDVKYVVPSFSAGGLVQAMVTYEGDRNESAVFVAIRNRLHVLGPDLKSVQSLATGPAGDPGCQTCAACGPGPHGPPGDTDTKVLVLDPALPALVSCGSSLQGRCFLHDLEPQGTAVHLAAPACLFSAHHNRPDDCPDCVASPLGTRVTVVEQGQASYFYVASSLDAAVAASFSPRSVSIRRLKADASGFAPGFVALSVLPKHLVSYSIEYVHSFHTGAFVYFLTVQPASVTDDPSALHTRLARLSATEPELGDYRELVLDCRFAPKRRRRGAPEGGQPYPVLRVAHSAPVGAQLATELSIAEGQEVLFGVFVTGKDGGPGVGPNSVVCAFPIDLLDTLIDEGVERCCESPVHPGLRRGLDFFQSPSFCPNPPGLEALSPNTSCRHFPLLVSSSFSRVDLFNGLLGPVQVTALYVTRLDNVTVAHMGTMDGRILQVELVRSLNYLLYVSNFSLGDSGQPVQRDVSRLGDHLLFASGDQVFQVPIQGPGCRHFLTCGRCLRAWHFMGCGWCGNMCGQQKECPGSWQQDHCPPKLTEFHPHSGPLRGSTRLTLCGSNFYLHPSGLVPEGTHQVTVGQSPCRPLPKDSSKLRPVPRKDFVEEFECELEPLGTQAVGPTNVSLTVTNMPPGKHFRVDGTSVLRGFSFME
Put plainly: ELISA, Ron (Sema IPT1)-IgG captured on an anti-human IgG Fc coated plate, His tagged MSP detected with anti-His-HRP, four parameter fit; ELISA, not SPR; printed only as 'MSP'. How it is done:
To determine binding affinity of hepsin-activated MSP to human Ron, surface plasmon resonance measurements on a BIAcore™-3000 instrument (GE Health Care, NJ) were performed. Rabbit anti-human IgG were chemically immobilized (amine coupling) on CM5 biosensor chips and the Ron (Sema IPT1)-IgG fusion protein was captured to give approximately 250 response units (RU). For kinetics measurements, different concentration of either hepsin-activated MSP or a commercially available MSP (R&D systems) were injected in HBS-P buffer at 25° C. with a flow rate of 30 μl/min. Association rates (kₒₙ) and dissociation rates (koff) were obtained by using a simple one-to-one Langmuir binding model (BIA-Evaluation) and the equilibrium dissociation constants (KD) were calculated (koff/kₒₙ). […] Bound MSP was detected using anti-His-HRP (Qiagen, Valencia, Calif.) followed by addition of TMB/H₂O₂ substrate (KPL, Gaithersburg, Md.). The reaction was stopped with 1M H₃PO₄ and the A₄₅₀ was measured on a Molecular Devices (Sunnyvale, Calif.) SpectraMax Plus³⁸⁴ microplate reader. The effective concentration to give half-maximal binding (EC₅₀) was determined by a four parameter fit using Kaleidagraph (Synergy Software, Reading, Pa.). […]

B1: hepsin-activated MSP (recombinant human macrophage-stimulating protein, C672A, cleaved by hepsin at Arg483-Val484) (ligand)
chain 1: QRSPLNDFQVLRGTELQHLLHAVVPGPWQEDVADAEECAGRCGPLMDCRAFHYNVSSHGCQLLPWTQHSPHTRLRRSGRCDLFQKKDYVRTCIMNNGVGYRGTMATTVGGLPCQAWSHKFPNDHKYTPTLRNGLEENFCRNPDGDPGGPWCYTTDPAVRFQSCGIKSCREAACVWCNGEEYRGAVDRTESGRECQRWDLQHPHQHPFEPGKFLDQGLDDNYCRNPDGSERPWCYTTDPQIEREFCDLPRCGSEAQPRQEATTVSCFRGKGEGYRGTANTTTAGVPCQRWDAQIPHQHRFTPEKYACKDLRENFCRNPDGSEAPWCFTLRPGMRAAFCYQIRRCTDDVRPQDCYHGAGEQYRGTVSKTRKGVQCQRWSAETPHKPQFTFTSEPHAQLEENFCRNPDGDSHGPWCYTMDPRTPFDYCALRRCADDQPPSILDPPDQVQFEKCGKRVDRLDQRRSKLR
chain 2: VVGGHPGNSPWTVSLRNRQGQHFCGGSLVKEQWILTARQCFSSCHMPLTGYEVWLGTLFQNPQHGEPSLQRVPVAKMVCGPSGSQLVLLKLERSVTLNQRVALICLPPEWYVVPPGTKCEIAGWGETKGTGNDTVLNVALLNVISNQECNIKHRGRVRESEMCTEGLLAPVGACEGDYGGPLACFTHNAWVLEGIIIPNRVCARSRWPAVFTRVSVFVDWIHKVMRLG
notes: Made by treating recombinant pro-MSP (C672A, from CHO cells) with the recombinant hepsin extracellular domain; It is a disulfide-linked α/β heterodimer; also called hepsin-treated pro-MSP
For B1, the concentration giving a half-maximal response (EC50) worked out at 0.519 nM.

In general, EC50 refers to the concentration giving half of the maximal effect.
